Measurements reported in patent publication EP4782465A1 (Shanghai Mabgen Biotech Ltd., dated 2026).

Target: Insulin receptor of C2C12 mouse myoblasts (mouse, UniProt P15208 28-1372)
Test: cell-based or functional assay

Sequence of Insulin receptor of C2C12 mouse myoblasts (P15208 28-1372): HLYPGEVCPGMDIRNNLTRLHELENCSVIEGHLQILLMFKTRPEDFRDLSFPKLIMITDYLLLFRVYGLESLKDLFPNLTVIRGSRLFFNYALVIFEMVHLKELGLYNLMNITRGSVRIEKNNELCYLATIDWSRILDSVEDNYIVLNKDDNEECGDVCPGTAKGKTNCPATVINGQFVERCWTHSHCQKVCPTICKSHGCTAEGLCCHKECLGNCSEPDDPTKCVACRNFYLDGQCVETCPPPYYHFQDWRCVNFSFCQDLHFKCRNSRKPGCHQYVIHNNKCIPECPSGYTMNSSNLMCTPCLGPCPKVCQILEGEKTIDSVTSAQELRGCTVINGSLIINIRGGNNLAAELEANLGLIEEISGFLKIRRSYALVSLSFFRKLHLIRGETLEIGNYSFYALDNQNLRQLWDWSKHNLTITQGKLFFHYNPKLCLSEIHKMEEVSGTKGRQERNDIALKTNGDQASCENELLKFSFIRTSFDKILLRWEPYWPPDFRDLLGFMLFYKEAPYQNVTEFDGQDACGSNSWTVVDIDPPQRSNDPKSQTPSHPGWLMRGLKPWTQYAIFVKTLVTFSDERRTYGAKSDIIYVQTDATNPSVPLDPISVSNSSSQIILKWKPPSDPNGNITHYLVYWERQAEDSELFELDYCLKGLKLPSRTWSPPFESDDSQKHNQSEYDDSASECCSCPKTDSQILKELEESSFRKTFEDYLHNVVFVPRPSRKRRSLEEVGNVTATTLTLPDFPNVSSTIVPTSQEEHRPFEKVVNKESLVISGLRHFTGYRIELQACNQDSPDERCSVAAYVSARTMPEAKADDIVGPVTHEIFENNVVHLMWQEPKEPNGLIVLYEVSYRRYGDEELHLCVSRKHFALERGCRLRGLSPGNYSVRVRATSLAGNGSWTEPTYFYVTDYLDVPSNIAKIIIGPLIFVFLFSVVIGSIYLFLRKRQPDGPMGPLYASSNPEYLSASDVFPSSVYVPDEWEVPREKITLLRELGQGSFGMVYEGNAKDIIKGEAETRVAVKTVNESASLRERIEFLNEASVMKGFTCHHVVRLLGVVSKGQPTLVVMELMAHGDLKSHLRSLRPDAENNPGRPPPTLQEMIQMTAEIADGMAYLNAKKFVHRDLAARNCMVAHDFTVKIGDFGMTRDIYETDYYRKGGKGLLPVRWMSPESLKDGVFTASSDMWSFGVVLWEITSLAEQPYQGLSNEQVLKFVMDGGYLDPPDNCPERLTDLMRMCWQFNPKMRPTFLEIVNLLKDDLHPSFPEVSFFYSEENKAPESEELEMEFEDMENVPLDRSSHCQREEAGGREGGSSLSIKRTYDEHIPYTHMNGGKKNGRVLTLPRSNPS

B1: Fusion protein 1 (insulin analog 1 + L2 + IgG2 Fc1) (Fc fusion)
chain: FVNQHLCGEHLVEALYLVCGERGFHYGGGGGGSGGGGGIVEQCCESICSLEQLENYCGGGGGQGGGGQGGGGQGGGGGECPPCPAPPVAGPSVFLFPPKPKDTLMISRTPEVTCVVVDVSHEDPEVQFNWYVDGVEVHNAKTKPREEQFNSTFRVVSVLTVVHQDWLNGKEYKCKVSNKGLPAPIEKTISKTKGQPREPQVYTLPPSREEMTKNQVSLTCLVKGFYPSDIAVEWESNGQPENNYKTTPPMLDSDGSFFLYSKLTVDKSRWQQGNVFSCSVMHEALHNHYTQKSLSLSPG
  AKT phosphorylation activity (EC50): 490 nM
